Experimental data reported in the DeepSol protein solubility set.

Experiment: soluble on expression in E. coli; label from the status in PepcDB or PDB records

Sequence	soluble on expression in E. coli
MNPSPSIAGLSDIEALERVPLEQRDLPSSTYELLQRSARRHGQRIALSCLLHGSAAEEPLRISYAELFARVTQTANALHRLGLESHQAVSFLLPNLPQTHYVIWGGEAAGIVNAINPLLEPEHIAELIRASNTRVLVTLAPFPGTDLWQKVAGLRAQLPELYAIVVVDPANLLPAPQREALKAQRGPLPEGVLDFDTLIADCPADRLESGRAIHPDDVASYFHTGGTTGTPKLAPHSHFNEVAMAEIMGLNADYGVDDVLLCGLPLFHVNGVMVTGLAPFHRGAQVLLAGPQGYRNPTLIQDFWKLVERYRVTSFSGVPTIYAALLQVPSDGRDLSSLRFALCGAAPMPVELIRQFEARTGLKVIEGYGLTEGTCGTSCNPRGGERRPGSIGLRLPYCQVKVAVLDGEGNYLRDAAPNEVGNLCLKGPTVFKGYLQQDRNRDIWIGDGWFNTGDLGRIDEDGYIWLTGRSKDLIIRGGHNIDPQMIEEALHRHPAVALAAAVGKPDAKAGELPVAYIQLKPGASASEEELLEHASRHVPERAAVPKDIWLIESMPVTAVGKTFKPALRLDAIRRVLEEESRRIAEDIRVEVVADERHGQLAHLHVPALDERRQAALEELLGGYALNYRL	not soluble
MNPTNYDPRIGQPAQSRPQVSLSMGRRIVQMPTGLPRSYQDESHNEPVGWDEPSGVGGSSGAGGQQSDKPTGLRHFSTKVCEKVKEKGLTNYNEVADELVADYFQNNLIKQIDVVKQEYDMKNIRRRVYDALNVLLAMNIITKSKKDIRWIGLPASASQEISRLEEEKSRREASISSKKQALEEMVLQIVSYKNLVERNRKNEHKNGRPENDTVLHLPFLIINTDKEANVECSVSSDKSEFLFSFDKKFEIHDDFEILKKLNLACSLETTNPTAEEVKTAKSFLPTLHQHYVDEIIANRKKVEAEKEEKRKQQQLIADQMSMNLSQAQYVEPTSSLAQMSYSSRFNRQLQEHLINDGSEDRSAAAGIMERDYDMDKNVNQGSASRGPMYNTYSPQKIRAQVNTPLQVPPVTKRYYVQKTQGPMKHDMTPVVRTVNRPYSTVPPDRRLSTGATSVNSGPVKYYVPQGHQPMHQPVGQRYRVRPQQPQMSHMGQPHQVQQRVVYPAGSISGHQLQPGQRIVTQRIVAPGGPHPPGTIVRKVIRKIVVNNPKQSPAQQVIQKKMMEQDMCTFERKTEQPMTSAQAAALIQHPQPEEYDYFQ	not soluble
MNQAIQFPDREEWDENKKCVCFPALVNGMQLTCAISGESLAYRFTGDTPEQWLASFRQHRWDLEEEAENLIQEQSEDDQGWVWLP	not soluble
MNQHLLGNPKLTVTHVNEVKAGINHIVVDSVQYGNQEMIMEKDGTVEMRDGEKLYINIFRPNKDGKFPVVMSADTYGKDNKPKITNMGALWPTLGTIPTSSFTPEESPDPGFWVPNDYVVVKVALRGSDKSKGVLSPWSKREAEDYYEVIEWAANQSWSNGNIGTNGVSYLAVTQWWVASLNPPHLKAMIPWEGLNDMYREVAFHGGIPDTGFYRFWTQGIFARWTDNPNIEDLIQAQQEHPLFDDFWKQRQVPLSQIKTPLLTCASWSTQGLHNRGSFEGFKQAASEEKWLYVHGRKEWESYYARENLERQKSFFDFYLKEENNDWKDTPHVIYEVRDQFYKGEFKSASAFPLPNAEYTPLYLNAENHTLNHAKISSAHVAQYDSEDKQQDVSFKYTFDKDTELVGNMNLKLWVSTKDSDDMDLFAGIKKLDRRGNEVNFPDFNHIENGQVATGWLRVSHRELDQEKSSIAQPWHKHETELKLSQDEIVPVEIELLPSGTLFKQGETLEVVVKGSEIVIGNSTPGMKTRYEHEETVNKGMHMIYTGGKYDSQLIIPIVN	soluble
MNQHNTRLIRLPEVLHRTGYGKAWIYHLINQNRFPSPVKIGARSVAFIESEVDEWIQLTIENSRKHVA	soluble
MNQLNWKDVTPSFEQYEDILKSASSLPKKKFVELQPRLLATVERFKKIKGLTRVLVINCADNTVYRKFICDVVTDGLEPTIMTESLDAKLLFDRYSVDLKGDVVVEAGLLSKAN	not soluble
MNQWRVIHNKSYEGAMNMAIDEAIFTAYKKGHNKPTLRFYTWEPACLSIGYFQKLEDEIDLDKCRCMNIDYTRRITGGRAVLHDNELTYSIIIGEDNPLIDKSINLSYRYISEGLVKGLNLSGIETDNLNRGERISRENLSAACFNAHASYEVTINNKKVIGSAQSRKDGVLLQHGSIILDFDVEKLFKLIKTKTPELKERAMKFTAKKASGIENEIGRKIDIDILQKNIVKGLAEQFNVEFVEGDLTDYEKQLVKELYEKYKNEEYN	not soluble
MNRNDAYHTLISEICALSLISEPERFYESANFKISDVDFTLHYQDRDEGRAILIYGDMGALPARNRDSALLALMDINFHMFSGAHSPAFSWNAQTGRVLLMGSIGLERATAEGVLLLMKSFADLAREWREHGFMGPVGAAGAPVNMPASQATTRDTPASSGRFQ	not soluble
MNRRDFLKTAGLTGIALGLPGCARSLPFGRDVFPDFGDDARPYLGLATSLREEHDYEARVEGTIPAGLRGTLYRNGPALFDRGGMRKRTLLDGDGMVQAFRFGDRGIRYANRFVRTRKFVEEEAAGRFLHPTWSTQAPGGIWTNVWPTERLLSQAGITVFPWRGRLYAFDESSFPYELDPDTLATVGETTFGLPRDLTTYSAHGKFDPVTGEWLHFGIRYGPRTFVHLTTFNADGTLRRHRALELPRAIYMHDWFVTERHVVFHLHPVEIAYWPFLLGIRSMAESLRWRPERGTILMVAERDGEAPPRLVETEACYLWHTFNAWEERGKITADFVGYRNPDHFISDDPVITAVMLGRRGTYSYPGEVMRYRIDPARGTAAREVLHQGSCEWPRIDERLRCRPHRTGYMLRCLPGEFFWSIVMGLDPVTGRTDEYSFGRGVYCTEPVFAPRPDTLAGGPGWLLVELYDSRTRTSSLAILDADRIADGPLALVRLTHHVPFSYHGWWQPASLEHHHHHH	not soluble
MNRRQFLGSAAAVSLASAASFARAHGHADYHHHHDMQPAAASAYTAVRQTAAHCLDAGQVCLTHCLSLLTQGDTSMSDCAVAVRQMLALCGAVHDLAAQNSPLTRDAAKVCLEACKQCAKACKEHSAHHAECKACYESCLDCIKECEKLAALEHHHHHH	soluble
MNRWQRAWRHLCSTGWQARRQFPAAQLKRLERQIAESERAHRGQLRFVVESALDWRAAWRGMSARERALQWFGELRVWDTEDNTGVLVYLLLAERRIEIVADRGIHRLAPAGEWAGICADMQRAFAAGAHVEGLESGLRRIHALLLAHAPRNGEPFVNELPDQVVVRLEHHHHHH	not soluble
MNSLLAELNRLGVAHATTEDVFIFVDRLFQHFSFLFQAEESGPRRLELVASVFEHLTVECVNDILDACSHPDVNVAETSNTCRPCPSPVPSAPKTVSGAQTSCATPRAPVTLEHHHHHH	not soluble
MNSVITQKVSSGVTLYADTKTGGFMNRTILVPIDISDSELTQRVISHVEAEAKIDDAEVHFLTVIPSLPYYASLGLAYSAELPAMDDLKAEAKSQLEEIIKKFKLPTDRVHVHVEEGSPKDRILELAKKIPAHMIIIASHRPDITTYLLGSNAAAVVRHAECSVLVVR	not soluble
MNTDEYYMRLAMEEAKKAEQIGEVPIGAVIVQDGRVIARAHNLRETEQRAIAHAEILAIDEACRATGSWRLERATLYVTLEPCAMCAGAIVLSRIERVVFGAFDPKGGCAGTLMNLLQESRFNHQVKVVSGVLADECGSLLSQFFRRLREQKRNVGGSANENSVD	not soluble
MNTDKQVYPLYYEAKNDKVRKRLGIKGGFYWAEAKKLSIAISRGAVAIDDAGYDEDDFKKPVRVNLPVVDDLPPEGVFDTEFCNRYEKGGEDGITMVFIASSPSVQDKPASTDNTNVNGEDMTEIEENMLLPVSGQELPIRWLAQHGSEKPVTHVSRDELQALHIARDEELPAVTALAVSHKTSLLDPLEIRDLHKLVRDTDRVFPNPGNSSLGLMTAFFEAYMDADYTDRGLLTKEWMKGNRVSRITRTASGANAGGGNLTDRGEGFVHDLTSLARDVATGVLARSMDVDIYNLHPAHAKRVEEIIAENKPPFSVFRDKFITMPGGMDYSRAIVVASVKEAPIGIEVIPAHVTEYLNKVLTETDHANPDPEIVDIACGRSSAPMPQRVTEEGKQDDEEKTQPSGAMADEQATAETMEPDATEHHQNTQPLDAQSQVNSVDEKYQELRAELHEARKNIPPKNPVDADKLLAALR	not soluble
MNTLIPISEQTVGQETVQTVNARDLHAFLEVKTSFKDWIIRRIQDCKFKEGYDFCSFLSESSGGRPSKEYHITLDMAKHLSMIERNDKGHEARQYFNFLFDNMSVLCLLSNQVPQKHLKYTAGRLPKQSLLRTLKALTHYMLVAYKWLVGCGYAIQYPRGESVTTDCVPCF	soluble
MNTLPDTHVREASGCPSPITIWQTLLTRLLDQHYGLTLNDTPFADERVIEQHIEAGISLCDAVNFLVEKYALVRTDQPGFSAGAPSQLINSIDILRARRATGLMTRDNYRTVNNITRGKHPEAKQ	not soluble
MNTNHYYIRYGCAITLYDNHVSERERLTPKELRFSIEKAVSSFRIQAQEPFSPGSKARFSFVKRKDGNTKNGIFLSPHIVTKDMHAQKVWTKASKFLEIDYLGKDNEREGLLKKDNVSMSNIPISGEYLTFGEKDTGRGSAKISVEEQTYGLITTLTPLKPALQVGKDNFCIIPDIPLNQMVDFIALFDKMQITHLSGEAMLGNIDNKGIPHRPKIFRGNFPNSPKSDRMGAIALLGAIGEFAKHAEFSTLAQKVLDSLKGST	not soluble
MNTNREPRFHDKVQAACYALMLDEHGVPADTGTLLYTKNAAVDRSEASGDLSPAKEFSIGRGFLEFVVRERNHLAALEASDGPPTGYEADAKCDYCFEQDTCMVVSGRLDQESKAGRIGDPVPAEERAYFDELYDAIEAERGAIHDEYRKLWEQSPDERAADDRAVVGLSPAEQTELPDGRWRLTATRPGSAASKIREGDRVLASDGDPVAGRAEMARVERLDADRVEVTTDEPVSLCRLDVYPSELEHHHHHH	soluble
MNTQNYTYSTTGYQPSQPSGGQQSYNETRQYSSNATSNYPSQTQQYQQQQHQYQSDHSNAQRLLNSGYNTNQVDYVLGHKDKYNEGPHYQPPIINSSATAANNSSSSTHHYNSSSQAIPLGGPNQGHSSSSYTTETRVTGGGTGAPVSNNYSNQNYSSSAYNSQSSQHQTKSIPVQNYQISFPPLSVSTPAFGTSFFENSQKSFQESSEKFHRDLASPLSRTIPVQSAGHFSEVSKYFNSEEEENYQVSQPAIPLPSADQVYEVSSNYNKSYSSQTTTQHQPQPVAANNNYSTSYHTERSSTTTAQQPQTIALPPPQNNSSHTETHSSTGPIMMHSPGGHSMKSTEFSSSRHHKQETTTTTTTTPQPPVFQTTTYPTTKTTSYNYSSSTIPSQPAKPSFNQESYTTHTERNNSSQGFPQQRLQPSGGYSYENYSSSRKEENRREETSRPVSQLSQYSESRNYKRNYEEKTETTTVPSLAPATNVTYKDLSNAQCVDDVFNKKTEMNESLPVGSVFNTHNNTEGGYRDANGHDVSYKRETQTSADPGRETALLKEEEKRVVETPLEPGVISRHVTTKYYKKKTVTDTTTTTA	not soluble
MNTVCTHCQAINRIPDDRLQDAAKCGRCGHELFDGEVINATGETLDKLLKDDLPVVIDFWAPWCGPCRNFAPIFEDVAEERSGKVRFVKVNTEAERELSARFGIRSIPTIMIFKHGQVVDMLNGAVPKAPFDSWLNEAL	not soluble
MNVAIIGATGYSGAELFRLLHGHPHVSRCDVFSSSQDGVHVSESFPHVGSVDGAVLHKLEIEALSRYDAVFFATPPGVSGEWAPALVDRGVKVIDLSGDFRLKDGAVYEQWYGRQTAPAEYLQKAVYGLTEWNREAVREAVLLSNPGCYPTATLLGLAPLVKEGLIKEDSIIVDAKSGVSGAGRKAGLGTHFSEVNENVKIYKVNVHQHIPEIEQTLQTWNEAMEPITFSTHLIPMTRGIMATIYAKAKQSISPNDLVDLYKTSYEGSPFVRIRQLGQFPATKEVYGSNYCDIGLAYDERTGRVTVVSVIDNLMKGAAGQAVQNFNLMMGWDEAEGLQSLPIYP	not soluble
